Laboratory results from article PMC10159624.
Several values for one entry are separate records, joined by “and”; a condition that tells them apart may be missing. Equal values may be shown once.

Experiments:
Experiment in all cases: EMSA
Conditions in all cases: 25 mM Tris pH 8.0, 100 mM KCl, 10 mM MgCl2, 10% glycerol, 1 mM TCEP, +/- 5 mM ATP-MgOAc2, 20 pM dsRNA, 30 min at 4 C; 5% native PAGE in 0.5x TBE at 4 C
[1] = test system: AncD1LOPH/DEUT HEL-DUF (reconstructed ancestor (lophotrochozoan/deuterostome Dicer-1, ML tree))
[2] = test system: AncD1DEUT HEL-DUF (reconstructed ancestor (deuterostome Dicer-1, ML tree))
[3] = test system: AncD1VERT HEL-DUF (reconstructed ancestor (vertebrate Dicer-1, ML tree))
[4] = test system: AncD1ARTH/LOPH/DEUT HEL-DUF (reconstructed ancestor (arthropod/lophotrochozoan/deuterostome Dicer-1, ML tree))
[5] = test system: AncD1D2 HEL-DUF (reconstructed ancestor (animal Dicer-1/Dicer-2, ML tree))

GGGAAGCUCAGAAUAUUGCACAAGUAGAGCUUCUCGAUCCCC / GGAUCGAGAAGCUCUACUUGUGCAAUAUUCUGAGCUUCCCGG [42-bp 3'ovr dsRNA]
Kd [1]: 49 nM and 90.8 nM | Kd [2]: 140 nM and 150 nM | Kd [3]: 538 nM and 500 nM | Kd [4]: 40.1 nM and 17.3 nM | Kd [5]: 6.5 nM and 15.9 nM

GGGAAGCUCAGAAUAUUGCACAAGUAGAGCUUCUCGAUCCCC / GGGGAUCGAGAAGCUCUACUUGUGCAAUAUUCUGAGCUUCCC [42-bp BLT dsRNA]
Kd [1]: 38 nM and 60.9 nM | Kd [2]: 145 nM and 132 nM | Kd [3]: 502 nM and 592 nM | Kd [4]: 23.8 nM and 17.5 nM | Kd [5]: 3.4 nM and 6.4 nM
